Data set [1] concerns the molecule itself. The experiment in a line: non-reducing gel (disulfide-linked oligomers); air-oxidized MBP-tagged LTO1 alone (Fig. 3, lane 2).
Data set [2] concerns the molecule itself. The experiment in a line: non-reducing SDS-urea-PAGE (disulfide-linked oligomers); 5 uM desalted MBP-tagged lumenal segment, air-oxidized or with 2 mM diamide or H2O2 for 30 minutes at room temperature, non-reducing 8 % SDS-urea-PAGE; oxidants raise the share of dimers, and higher order oligomers appear for the wild type.

No end group written: not given here.

B1: MBP-tagged lumenal segment of Arabidopsis thaliana LTO1 (AA 251-376) (domain or fragment, UniProt Q8L540 251-376, looked up)
chain: SRSGDIELPYFRTEISSSSSPYAIALAKHLNSIGAKMYGAFWCSHCLEQKEMFGREAAKELNYVECFPDGYKKGTKILKACADAAIEGFPTWIINDKVLSGEIELAELAEMTGFSLDQANETNQLQ
As for B1, the binding result in data set [1] was “binds”.
AQLIDTVHNLFIGVGVGLPSTVMECGDMIYRSTLPKSNGLTITA (domain or fragment, UniProt Q9S713 46-89, looked up, also: MBP-tagged) [MBP-tagged lumenal segment of Arabidopsis thaliana STN7 (AA 46-89), C65S]: the binding result in data set [2] is reported as “binds”.
In the case of AQLIDTVHNLFIGVGVGLPCTVMESGDMIYRSTLPKSNGLTITA (domain or fragment, UniProt Q9S713 46-89, looked up, also: MBP-tagged) [MBP-tagged lumenal segment of Arabidopsis thaliana STN7 (AA 46-89), C70S], the binding result in data set [2] is on record as “binds”.

Source of the values: publication PMC11808413 (FEBS letters, 2024).
